Patent US20220073631A1 (QYUNS THERAPEUTICS, published 2022)

Key:
[1] = target: IL-4Rα on human cells (HEK Blue IL-4/IL-13, A549, TF-1, HFL-1, PBMCs) (human, UniProt P24394 26-825); assay: cell-based or functional assay
[2] = target: T1, hIL-4Rα-ECD (wild-type hIL-4Rα extracellular domain with C-terminus his-tag) (human, UniProt P24394 26-232); assay: SPR, Biacore T200, by the methods of Example 2; mean of three experiments
T1 construct: Made in HEK 293F cells and purified on nickel; not shown: C-terminal his-tag
Description: (§1) The protein A was chemically coupled to a CM5 chip, and an appropriate amount of the antibody was immobilized by a capture method such that the Rmax was less than 50 RU and the flow rate for the capture was 10 μl/min. The antigen was subject to gradient dilution, and the flow rate in the instrument was switched to 30 μl/min. The antigen was flowed through the reference channel and the channel with the immobilized antibody sequentially in an ascending order of concentration, and the running buffer was flowed through as a negative control. After each binding and dissociation was complete, the chip was regenerated with glycine, pH 1.5. Fitting was performed with the build-in software in the instrument according to a 1:1 binding model. The binding rate constant kₐ, the dissociation rate constant kd, and the equilibrium dissociation constant KD values of the antibody were calculated. Dupilumab was obtained by purchasing a commercially available medicine.
(§2) To further narrow down the key amino acids that PD2-31 binds to, multiple mutants of hIL-4Rα were designed in Loop 2 (V40FLLSEA46) and Loop 3 (M65[…]73) (Table 2). The wild-type hIL-4Rα (hIL-4Rα-ECD) and hIL-4Rα mutants were prepared using standard techniques. Briefly, the expression plasmids containing the extracellular domain of wild-type hIL-4Rα and different mutated hIL-4Rα were constructed and transfected into HEK 293F cells. After expression, the extracellular domain of wild-type hIL-4Rα and hIL-4Rα mutants with C-terminus his-tag were purified by Nickel chromatography. Purified proteins of wild-type hIL-4Rα and hIL-4Rα mutants were analyzed for interaction with PD2-31 and Dupilumab. The interaction was studied by Biacore T200, according to the methods in Example 2.

[3] = target: T2, human IL-4Rα (Shanghai Novoprotein Technology Co., Ltd) (human, UniProt P24394 26-232); assay: SPR, Biacore T200, antibody captured on protein A, antigen as analyte, 25 C, 1:1 model
T2 construct: Bought protein; also called hIL-4Rα; human interleukin-4 receptor alpha
Description: as §1

[4] = target: T3, hIL-4Rα-Mu242 (human, UniProt P24394 26-232); assay: SPR, Biacore T200, by the methods of Example 2
T3 construct: Printed positions fit the mature protein; also called V68R/V69F/S70Q; not shown: C-terminal his-tag
T3 chain: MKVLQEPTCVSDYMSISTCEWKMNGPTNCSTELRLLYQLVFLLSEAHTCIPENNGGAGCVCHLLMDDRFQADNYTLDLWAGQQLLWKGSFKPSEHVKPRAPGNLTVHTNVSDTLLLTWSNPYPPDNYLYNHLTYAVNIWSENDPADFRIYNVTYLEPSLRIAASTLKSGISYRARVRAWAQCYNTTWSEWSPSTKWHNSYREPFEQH
Description: as §1, §2

IC50, IL-4-induced CCL-11 release activity in HFL-1 cells (FIG. 7(A)) [1]: 43.1 ng/mL
IC50, IL-4-induced CCL-17 release activity in A549 cells (FIG. 5(A)) [1]: 32.6 ng/mL
IC50, IL-4-induced CCL-17 release activity in PBMCs (FIG. 9(A)) [1]: 24.8 ng/mL
IC50, IL-4-induced STAT6 phosphorylation activity in HEK Blue IL-4/IL-13 cells (FIG. 4(A)) [1]: 3.19 ng/mL
IC50, IL-4-induced proliferation activity of TF-1 cells (FIG. 6(A)) [1]: 13.9 ng/mL
IC50, IL-13-induced CCL-11 release activity in HFL-1 cells (FIG. 7(C)) [1]: 38.5 ng/mL
IC50, IL-13-induced CCL-17 release activity in A549 cells (FIG. 5(C)) [1]: 28.9 ng/mL
IC50, IL-13-induced CCL-17 release activity in PBMCs (FIG. 9(C)) [1]: 68.6 ng/mL
IC50, IL-13-induced STAT6 phosphorylation activity in HEK Blue IL-4/IL-13 cells (FIG. 4(C)) [1]: 8.78 ng/mL
IC50, IL-13-induced proliferation activity of TF-1 cells (FIG. 6(C)) [1]: 15.5 ng/mL
Kd [2]: 0.169 nM
koff [2]: 0.000134 s⁻¹
kon [2]: 779000 M⁻¹ s⁻¹
Kd [3]: 0.378 nM
koff [3]: 0.000236 s⁻¹
kon [3]: 612000 M⁻¹ s⁻¹
Kd [4]: 0.979 nM
koff [4]: 0.000138 s⁻¹
kon [4]: 141000 M⁻¹ s⁻¹
B1: QX005N (PD2-31) (antibody, V domains shown)
VH: EVQLVESGGGLVQPGGSLRLSCAASGIDLRTNSMSWVRQAPGKGLEWVGIIGSSGYMDYASWAKGRFTISRDNSKNTLYLQMNSLRAEDTAVYYCARHGDSSSFALWGQGTLVTVSS
VL: DIQMTQSPSSLSASVGDRVTITCRASESVYKNNRLSWYQQKPGKAPKLLIYEASKVASGVPSRFSGSGSGTDFTLTISSLQPEDFATYYCAGAYRGNIYPFGQGTKVEIK
notes: Humanized from rabbit clone #2, expressed as a full antibody in ExpiCHO-S cells (heavy chain 48.5 kDa, light chain 23.7 kDa)
